In EP4796681A2 (Daiichi Sankyo Co., Ltd., dated 2026):
Blank lines part the entries; values can stand above or below the binder they belong to.

What was measured:
[1] = molecular target: T1, Chymotrypsin (Worthington Biochemical Corp.) (Bos taurus (Bovine), UniProt P00766 1-13; P00766 16-146; P00766 149-245); test: cell-based or functional assay
[2] = molecular target: T1, Chymotrypsin (Worthington Biochemical …); test: ELISA, chymotrypsin coated on plate, detection by HRP-conjugated S-Tag antibody

- IC50 of chymotrypsin inhibitory activity (Pierce Quantitative Protease Assay Kit) [1]: 374 nM
- EC50 [2]: 17.8 nM
B1: α-chymotrypsin-binding peptide No. 6 (SPINK2 mutant) (designed binder)
chain: DPQFGLFSKYRTPNCRRWLLPWCTYKYKPVCGSDMSTYANECTLCMKIREGGHNIKIIRNGPC
notes: Expressed in E. coli Origami B (DE3) as thioredoxin/His fusion, thioredoxin tag cleaved by thrombin; mainly monomer; also called clone 6; not shown: vector-derived N-terminal residues left after thrombin cleavage of the pET 32a (varied) fusion, including the S-tag used

- IC50 of chymotrypsin inhibitory activity (Pierce Quantitative Protease Assay Kit) [1]: 815 nM
- EC50 [2]: 18.3 nM
B2: α-chymotrypsin-binding peptide No. 2 (SPINK2 mutant) (designed binder)
chain: DPQFGLFSKYRTPNCMRHRRHFCTMVYKPVCGSDMSTYANECTLCMKIREGGHNIKIIRNGPC
notes: Expressed in E. coli Origami B (DE3) as thioredoxin/His fusion, thioredoxin tag cleaved by thrombin; mainly monomer; also called clone 2; not shown: vector-derived N-terminal residues left after thrombin cleavage of the pET 32a (varied) fusion, including the S-tag used
